{"source": "paper PMC3656124", "about": "“DNA Topoisomerase II Is Involved in Regulation of Cyst Wall Protein Genes and Differentiation in Giardia lamblia” (PLoS Neglected Tropical Diseases, 2013)", "binders": {"B1": {"name": "IIBS (dsDNA)", "DNA 1": "ATGAAATCTAACAATGCGCTCATCGTCATCCTCGGC", "DNA 2": "GCCGAGGATGACGATGAGCGCATTGTTAGATTTCAT"}}, "key": {"Topo II": {"biological_target": "T1, Topo II (Giardia lamblia, UniProt E2RU90 1-1491)", "T1 sequence": "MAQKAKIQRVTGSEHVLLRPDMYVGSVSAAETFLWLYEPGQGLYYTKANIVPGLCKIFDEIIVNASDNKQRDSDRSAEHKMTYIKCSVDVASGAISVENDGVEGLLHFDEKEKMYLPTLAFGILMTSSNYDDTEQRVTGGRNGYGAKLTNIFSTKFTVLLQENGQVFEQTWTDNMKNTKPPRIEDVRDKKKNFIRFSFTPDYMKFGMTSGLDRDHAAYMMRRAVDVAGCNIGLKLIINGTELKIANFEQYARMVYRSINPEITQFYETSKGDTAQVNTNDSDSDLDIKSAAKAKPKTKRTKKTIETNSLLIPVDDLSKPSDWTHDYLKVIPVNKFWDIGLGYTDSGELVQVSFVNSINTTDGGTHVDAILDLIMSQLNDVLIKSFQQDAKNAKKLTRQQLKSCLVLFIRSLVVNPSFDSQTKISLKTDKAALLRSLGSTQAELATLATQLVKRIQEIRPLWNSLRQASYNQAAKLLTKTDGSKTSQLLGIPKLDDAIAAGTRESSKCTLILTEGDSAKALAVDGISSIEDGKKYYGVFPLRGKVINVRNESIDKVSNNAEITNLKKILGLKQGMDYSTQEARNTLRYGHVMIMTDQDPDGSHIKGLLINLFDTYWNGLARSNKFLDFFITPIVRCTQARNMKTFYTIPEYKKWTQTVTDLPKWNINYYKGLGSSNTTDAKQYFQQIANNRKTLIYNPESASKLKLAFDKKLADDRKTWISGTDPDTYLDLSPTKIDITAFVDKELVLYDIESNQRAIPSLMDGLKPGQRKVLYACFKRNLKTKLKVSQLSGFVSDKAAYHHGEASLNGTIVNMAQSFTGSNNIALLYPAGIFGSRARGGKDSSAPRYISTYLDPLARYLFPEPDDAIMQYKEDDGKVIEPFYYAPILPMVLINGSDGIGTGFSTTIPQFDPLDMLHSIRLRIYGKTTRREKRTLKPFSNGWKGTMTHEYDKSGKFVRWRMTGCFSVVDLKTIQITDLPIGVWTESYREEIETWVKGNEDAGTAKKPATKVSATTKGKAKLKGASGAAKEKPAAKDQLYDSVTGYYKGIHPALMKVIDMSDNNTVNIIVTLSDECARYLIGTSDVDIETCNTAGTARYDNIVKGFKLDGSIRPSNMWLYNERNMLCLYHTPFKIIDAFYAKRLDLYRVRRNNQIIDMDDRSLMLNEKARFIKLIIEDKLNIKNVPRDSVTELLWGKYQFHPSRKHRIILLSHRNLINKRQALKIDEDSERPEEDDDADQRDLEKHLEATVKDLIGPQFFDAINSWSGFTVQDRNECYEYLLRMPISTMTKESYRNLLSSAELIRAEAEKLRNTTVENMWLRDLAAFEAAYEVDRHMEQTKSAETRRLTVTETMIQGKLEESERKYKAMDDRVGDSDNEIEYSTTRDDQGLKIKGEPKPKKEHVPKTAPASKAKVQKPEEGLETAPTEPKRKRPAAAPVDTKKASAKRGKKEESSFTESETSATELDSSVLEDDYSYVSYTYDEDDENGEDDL", "experiment": "EMSA; EMSA: 0.02 pmol 5'-labeled probe, 5 ng protein, 20 ul, 0.5 ug poly(dI-dC), 15 min, room temperature, 6% acrylamide gel; buffer, salt and pH only by citation", "details": "protein: recombinant; tags: C-terminal V5-His; chain copies: 2; label: 5'-32P"}, "Topo IIN": {"biological_target": "T2, Topo IIN (Giardia lamblia, UniProt E2RU90 1-488)", "T2 sequence": "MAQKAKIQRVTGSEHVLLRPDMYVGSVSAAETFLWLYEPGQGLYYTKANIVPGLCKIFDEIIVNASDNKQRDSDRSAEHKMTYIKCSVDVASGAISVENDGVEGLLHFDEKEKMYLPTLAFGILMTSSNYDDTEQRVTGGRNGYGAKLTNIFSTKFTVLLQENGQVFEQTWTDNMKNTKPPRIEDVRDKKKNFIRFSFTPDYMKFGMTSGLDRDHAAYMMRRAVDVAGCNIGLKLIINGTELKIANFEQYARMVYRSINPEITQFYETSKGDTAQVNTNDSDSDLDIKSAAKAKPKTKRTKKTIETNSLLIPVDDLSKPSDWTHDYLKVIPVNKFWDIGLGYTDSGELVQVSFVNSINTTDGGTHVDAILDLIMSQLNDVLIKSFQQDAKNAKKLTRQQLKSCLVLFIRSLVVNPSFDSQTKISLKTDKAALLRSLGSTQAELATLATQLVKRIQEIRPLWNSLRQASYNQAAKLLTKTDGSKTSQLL", "experiment": "EMSA; EMSA: 0.02 pmol 5'-labeled probe, 5 ng protein, 20 ul, 0.5 ug poly(dI-dC), 15 min, room temperature, 6% acrylamide gel; buffer, salt and pH only by citation", "details": "protein: recombinant; tags: C-terminal V5-His; label: 5'-32P"}}, "data": [{"binder": "B1", "values": [{"measurement": "binding result", "setting": "Topo II", "result": "binds"}, {"measurement": "binding result", "setting": "Topo IIN", "result": "no binding"}]}]}
